Source: patent publication US20250026815A1
Read-outs that look alike come from different tables or passages of the source.

Key:
[1] = biological target: recombinant RSV-F protein (RSV A2 strain fusion (F) protein with added His tag) (human respiratory syncytial virus, A2 strain) (UniProt P03420); experiment: SPR (Biacore), antibody captured, RSV-F as analyte
[2] = biological target: RSV-F protein of RSV B9320 virus (as carried by the live virus in the neutralisation assay) (human respiratory syncytial virus, strain B9320); experiment: cell-based or functional assay
[3] = biological target: RSV-F protein of RSV A2 virus (as carried by the live virus in the neutralisation assay) (human respiratory syncytial virus, strain A2) (UniProt P03420); experiment: cell-based or functional assay
[4] = biological target: RSV-F protein of RSV A Long virus (as carried by the live virus in the neutralisation assay) (human respiratory syncytial virus, strain A Long) (UniProt P12568); experiment: cell-based or functional assay
[5] = biological target: RSV-F protein of RSV B9320 virus (as carried by the live virus in the neutralisation assay) (human respiratory syncytial virus, strain B9320); experiment: cell-based or functional assay; remark: listed apart in the source
[6] = biological target: RSV-F protein of RSV A2 virus (as carried by the live virus in the neutralisation assay) (human respiratory syncytial virus, strain A2) (UniProt P03420); experiment: cell-based or functional assay; remark: listed apart in the source
[7] = biological target: RSV-F protein of RSV A Long virus (as carried by the live virus in the neutralisation assay) (human respiratory syncytial virus, strain A Long) (UniProt P12568); experiment: cell-based or functional assay; remark: listed apart in the source
[8] = biological target: recombinant RSV-F protein (RSV A2 strain fusion (F) protein with added His tag) (human respiratory syncytial virus, A2 strain) (UniProt P03420); experiment: SPR (Biacore), antibody captured, RSV-F as analyte; column head prints nM, Kd/Ka gives M

Sequence of RSV-F protein of RSV A2 virus (as carried by the live virus in the neutralisation assay) (human respiratory syncytial virus, strain A2) (P03420 26-574): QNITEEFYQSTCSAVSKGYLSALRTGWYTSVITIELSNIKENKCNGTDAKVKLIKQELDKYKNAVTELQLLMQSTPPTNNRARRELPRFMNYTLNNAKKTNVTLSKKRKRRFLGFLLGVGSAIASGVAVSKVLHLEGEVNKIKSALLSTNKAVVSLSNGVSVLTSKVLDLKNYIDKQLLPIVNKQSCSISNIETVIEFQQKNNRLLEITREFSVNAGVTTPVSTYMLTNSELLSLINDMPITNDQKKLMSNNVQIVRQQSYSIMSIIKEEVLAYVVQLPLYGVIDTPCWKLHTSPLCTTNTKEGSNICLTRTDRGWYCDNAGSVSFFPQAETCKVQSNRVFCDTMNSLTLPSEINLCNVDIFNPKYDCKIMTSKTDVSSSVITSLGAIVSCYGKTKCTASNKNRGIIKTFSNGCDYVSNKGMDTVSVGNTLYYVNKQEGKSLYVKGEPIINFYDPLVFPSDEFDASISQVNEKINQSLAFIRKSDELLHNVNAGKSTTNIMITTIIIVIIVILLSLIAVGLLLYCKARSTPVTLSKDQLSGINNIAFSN
Sequence of recombinant RSV-F protein (RSV A2 strain fusion (F) protein with added His tag) (human respiratory syncytial virus, A2 strain) (P03420 26-109, chain 1 of 2): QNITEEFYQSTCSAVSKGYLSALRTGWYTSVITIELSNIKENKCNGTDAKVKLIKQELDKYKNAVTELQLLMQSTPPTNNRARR
Sequence of recombinant RSV-F protein (RSV A2 strain fusion (F) protein with added His tag) (human respiratory syncytial virus, A2 strain) (P03420 137-524, chain 2 of 2): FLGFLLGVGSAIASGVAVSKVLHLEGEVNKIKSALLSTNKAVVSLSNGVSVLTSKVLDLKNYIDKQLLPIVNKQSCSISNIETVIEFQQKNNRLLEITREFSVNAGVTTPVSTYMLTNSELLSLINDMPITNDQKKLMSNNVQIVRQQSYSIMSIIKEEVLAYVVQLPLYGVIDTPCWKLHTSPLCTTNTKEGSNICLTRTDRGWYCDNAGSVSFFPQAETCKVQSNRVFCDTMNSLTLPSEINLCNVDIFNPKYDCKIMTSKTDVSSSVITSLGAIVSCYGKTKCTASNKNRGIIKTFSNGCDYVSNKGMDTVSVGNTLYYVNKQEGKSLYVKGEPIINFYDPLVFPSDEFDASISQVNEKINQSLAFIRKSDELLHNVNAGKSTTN

Palivizumab (antibody)
kon [1]: 1.2e+06 M⁻¹ s⁻¹
Absolute IC50, neutralizing RSV B9320 (HEp-2 cells, indirect ELISA) [2]: 1.07 µg/mL
Absolute IC50, neutralizing RSV A2 (HEp-2 cells, indirect ELISA) [3]: 1.06 µg/mL
Absolute IC50, neutralizing RSV A Long (HEp-2 cells, indirect ELISA) [4]: 0.232 µg/mL
Absolute IC50, neutralizing RSV B9320 (HEp-2 cells, indirect ELISA) [5]: 0.481 µg/mL
Absolute IC50, neutralizing RSV A2 (HEp-2 cells, indirect ELISA) [6]: 3.04 µg/mL
Absolute IC50, neutralizing RSV A Long (HEp-2 cells, indirect ELISA) [7]: 1.59 µg/mL
Kd [8]: 0.0628 nM
